# Reference: article PMC8011160
# T1: fibrinogen (purified from human plasma) (human), P02671
# T1 chain 1: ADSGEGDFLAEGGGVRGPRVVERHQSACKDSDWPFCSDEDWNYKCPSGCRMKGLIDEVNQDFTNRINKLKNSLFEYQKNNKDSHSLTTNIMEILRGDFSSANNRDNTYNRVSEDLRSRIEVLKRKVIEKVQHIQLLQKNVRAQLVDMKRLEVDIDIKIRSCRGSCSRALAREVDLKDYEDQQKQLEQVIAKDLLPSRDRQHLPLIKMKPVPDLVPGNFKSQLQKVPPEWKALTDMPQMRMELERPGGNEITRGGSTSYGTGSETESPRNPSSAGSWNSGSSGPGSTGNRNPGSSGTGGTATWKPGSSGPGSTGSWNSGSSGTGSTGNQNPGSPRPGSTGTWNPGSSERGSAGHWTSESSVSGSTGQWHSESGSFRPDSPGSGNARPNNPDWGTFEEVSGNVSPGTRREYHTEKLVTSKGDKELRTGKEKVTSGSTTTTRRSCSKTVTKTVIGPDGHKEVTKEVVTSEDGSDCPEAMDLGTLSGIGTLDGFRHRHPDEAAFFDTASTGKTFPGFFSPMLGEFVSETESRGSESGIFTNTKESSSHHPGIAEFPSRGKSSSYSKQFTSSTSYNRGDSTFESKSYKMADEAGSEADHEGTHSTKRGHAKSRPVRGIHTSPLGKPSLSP
# T1 chain 2: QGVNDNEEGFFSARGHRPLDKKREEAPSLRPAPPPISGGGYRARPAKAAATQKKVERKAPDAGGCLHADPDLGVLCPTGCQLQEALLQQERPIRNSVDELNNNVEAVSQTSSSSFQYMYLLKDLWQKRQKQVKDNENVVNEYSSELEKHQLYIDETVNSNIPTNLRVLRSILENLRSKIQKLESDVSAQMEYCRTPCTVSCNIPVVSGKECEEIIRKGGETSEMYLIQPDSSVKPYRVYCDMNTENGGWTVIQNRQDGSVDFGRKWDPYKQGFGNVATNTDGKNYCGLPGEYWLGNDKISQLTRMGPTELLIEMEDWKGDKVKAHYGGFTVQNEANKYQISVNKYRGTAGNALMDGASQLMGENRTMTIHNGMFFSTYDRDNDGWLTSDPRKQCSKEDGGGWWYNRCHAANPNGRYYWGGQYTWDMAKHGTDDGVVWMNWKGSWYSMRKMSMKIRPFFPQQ
# T1 chain 3: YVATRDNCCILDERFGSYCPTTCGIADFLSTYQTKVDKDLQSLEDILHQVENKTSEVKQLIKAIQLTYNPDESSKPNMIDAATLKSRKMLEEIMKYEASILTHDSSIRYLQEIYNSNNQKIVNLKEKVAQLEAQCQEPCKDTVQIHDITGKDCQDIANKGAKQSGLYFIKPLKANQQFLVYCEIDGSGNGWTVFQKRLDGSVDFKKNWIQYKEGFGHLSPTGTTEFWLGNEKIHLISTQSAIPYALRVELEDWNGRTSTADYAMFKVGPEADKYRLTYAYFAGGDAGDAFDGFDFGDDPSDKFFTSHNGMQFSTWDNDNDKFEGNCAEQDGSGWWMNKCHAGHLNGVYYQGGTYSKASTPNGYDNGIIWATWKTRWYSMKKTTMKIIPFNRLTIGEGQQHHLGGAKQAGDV
# B1: GroEL protein of Leptospira interrogans (recombinant, His-tagged), P61438 1-546 (natural protein)
# chain: MAKDIEYNETARRKLLEGVNKLANAVKVTLGPKGRNVVIDKKFGAPTITKDGVTVAKEIELEDPLENMGAQMVKEVSTKTNDVAGDGTTTATILAQSIINEGLKNVTAGANPMSLKKGIDKAVTAAVESIQKRAVKIENKKDIANVASISANNDNTIGNLIADAMDKVGKDGVITVEEAKSIETTLDVVEGMQFDRGYISPYMVTDAESMVATLNDPFILIYDKKISSMKDLIHILEKVAQAGKPLVIISEEVEGEALATIVVNTLRKTISCVAVKAPGFGDRRKSMLEDIAILTGGQVISEDLGMKLENTTLQMLGRANKVTVDKENTTIIEGKGQTKEIQGRIGQIKKQIEDTTSEYDREKLQERLAKLAGGVAVIHVGAATEVEMKEKKARVEDALSATRAAVEEGIVPGGGLTLLKAQEAVGSLKLDGDEATGAKIIFRALEEPIRMITSNAGLEGSVIVEHAKAKKGNEGFNALTMVWEDMIQAGVVDPAKVVRSALQNAASIGSMILTTEVTITDKPDKDAPNPMAGMGGGGMGGMGGMM
# Assays:
# [1] = target: T1, fibrinogen (purified from human plasma) …; assay: ELISA; host protein coated on microtiter wells; recombinant protein varied from 0 to 2 μM; absorbance with BSA subtracted; apparent Kd from the half-maximal binding concentration (GraphPad Prism 6); conditions: remark: other sources report otherwise
# [2] = target: collagen Type I (purified from rat tail) (rat), P02454; assay: as above; conditions: remark: other sources report otherwise
binder,measurement,setting,value
B1,Kd,[1],23 nM
same,Kd,[2],11 nM
